Consider one substance from patent publication EP1007666B1.

Test [1] deals with recombinant soluble rat GDNFRα (rat) (UniProt Q62997). The experiment in a line: displacement of labelled rGDNF from soluble GDNFRα by 10 nM unlabeled NTN.
Test [2] has the same target. Briefly: binding experiments with biotinylated ligand, format not described.
Test [3] concerns the target rat NTNRα, endogenous on embryonic rat spinal motoneurons (rat). Briefly: cell-based or functional assay.

Some results are limits rather than exact numbers.

recombinant soluble rat GDNFRα (rat), sequence (Q62997 25-430 limits assumed): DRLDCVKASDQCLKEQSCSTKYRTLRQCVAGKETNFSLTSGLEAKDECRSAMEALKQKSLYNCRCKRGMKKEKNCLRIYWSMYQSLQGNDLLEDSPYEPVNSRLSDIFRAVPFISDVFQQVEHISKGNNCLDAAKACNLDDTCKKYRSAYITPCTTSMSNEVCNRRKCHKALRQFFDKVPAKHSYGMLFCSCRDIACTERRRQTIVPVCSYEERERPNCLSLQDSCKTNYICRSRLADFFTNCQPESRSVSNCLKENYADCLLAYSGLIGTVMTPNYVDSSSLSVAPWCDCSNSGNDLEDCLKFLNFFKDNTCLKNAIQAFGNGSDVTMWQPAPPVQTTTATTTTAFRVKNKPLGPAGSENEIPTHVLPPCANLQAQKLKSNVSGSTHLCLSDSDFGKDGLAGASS

For orientation: Kd means the concentration at which binding is half-saturated. On to “Neurturin (NTN), species not stated at these places (ligand)”, for which the dissociation constant (Kd) is 0.001 µM in test [1] and above 1000 µM in test [2]. In test [3], this substance yielded a survival of E14 rat spinal motoneurons at 72 hours of 50%.
